Legend:
Assay in all cases: cell-based or functional assay
[1] = target: HIV-1 Env of pseudovirus CNE8 (HIV-1)
[2] = target: HIV-1 Env of pseudovirus X2088_c9 (HIV-1)
[3] = target: HIV-1 Env of pseudovirus 0260.v5.c36 (HIV-1)
[4] = target: HIV-1 Env of pseudovirus C1080.c03 (HIV-1)
[5] = target: HIV-1 Env of pseudovirus T278-50 (HIV-1)
[6] = target: HIV-1 Env of pseudovirus X1632_S2_B10 (HIV-1)
[7] = target: HIV-1 Env of pseudovirus 3365.v2.c2 (HIV-1)
[8] = target: HIV-1 Env of pseudovirus X1193_c1 (HIV-1)
[9] = target: HIV-1 Env of pseudovirus T250-4 (HIV-1)
[10] = target: HIV-1 Env of pseudovirus 6041.v3.c23 (HIV-1)
[11] = target: HIV-1 Env of pseudovirus BJOX009000.02.4 (HIV-1)
[12] = target: HIV-1 Env of pseudovirus 191084 B7-19 (HIV-1)
[13] = target: HIV-1 Env of pseudovirus CNE52 (HIV-1)
[14] = target: HIV-1 Env of pseudovirus 249M B10 (HIV-1)
[15] = target: HIV-1 Env of pseudovirus PVO.4 (HIV-1)
[16] = target: HIV-1 Env of pseudovirus CNE53 (HIV-1)
[17] = target: HIV-1 Env of pseudovirus ZM214M.PL15 (HIV-1)
[18] = target: HIV-1 Env of pseudovirus Q259.d2.17 (HIV-1)
[19] = target: HIV-1 Env of pseudovirus Ce2060_G9 (HIV-1)
[20] = target: HIV-1 Env of pseudovirus ZM109F.PB4 (HIV-1)
[21] = target: HIV-1 Env of pseudovirus CNE17 (HIV-1)
[22] = target: HIV-1 Env of pseudovirus ZM135M.PL10a (HIV-1)
[23] = target: HIV-1 Env of pseudovirus Ce1086_B2 (HIV-1)
[24] = target: HIV-1 Env of pseudovirus TRO.11 (HIV-1)
[25] = target: HIV-1 Env of pseudovirus Du172.17 (HIV-1)
[26] = target: HIV-1 Env of pseudovirus ZM247v1(Rev-) (HIV-1)
[27] = target: HIV-1 Env of pseudovirus MS208.A1 (HIV-1)
[28] = target: HIV-1 Env of pseudovirus HIV-0013095-2.11 (HIV-1)
[29] = target: HIV-1 Env of pseudovirus WITO4160.33 (HIV-1)
[30] = target: HIV-1 Env of pseudovirus Ce2010_F5 (HIV-1)
[31] = target: HIV-1 Env of pseudovirus QH0692.42 (HIV-1)
[32] = target: HIV-1 Env of pseudovirus ZM233M.PB6 (HIV-1)
[33] = target: HIV-1 Env of pseudovirus AC10.0.29 (HIV-1)
[34] = target: HIV-1 Env of pseudovirus THRO4156.18 (HIV-1)
[35] = target: HIV-1 Env of pseudovirus WEAU_d15_410_787 (HIV-1)
[36] = target: HIV-1 Env of pseudovirus ZM53M.PB12 (HIV-1)
[37] = target: HIV-1 Env of pseudovirus CAP210.2.00.E8 (HIV-1)

**Q.** N49P19 (antibody) was tested. Which neutralization IC50 [1] did it give?
**A.** 0.772 µg/mL

**Q.** And the neutralization IC80 [1]?
**A.** 4.84 µg/mL

**Q.** And the neutralization MPI [1]?
**A.** 97

**Q.** What about the neutralization IC50 [2] of the same substance?
**A.** 1.4 µg/mL

**Q.** What about the neutralization IC80 [2] of the same substance?
**A.** 3.76 µg/mL

**Q.** What about the neutralization MPI [2] of the same substance?
**A.** 99

**Q.** What about the neutralization IC50 [3] of the same substance?
**A.** 1.25 µg/mL

**Q.** What about the neutralization IC80 [3] of the same substance?
**A.** 8.52 µg/mL

**Q.** And the neutralization MPI [3]?
**A.** 99

**Q.** And the neutralization IC50 [4]?
**A.** 0.682 µg/mL

**Q.** What about the neutralization IC80 [4] of the same substance?
**A.** 3.05 µg/mL

**Q.** And the neutralization MPI [4]?
**A.** 100

**Q.** What about the neutralization IC50 [5] of the same substance?
**A.** > 50 µg/mL

**Q.** And the neutralization IC80 [5]?
**A.** > 50 µg/mL

**Q.** And the neutralization MPI [5]?
**A.** 35

**Q.** And the neutralization IC50 [6]?
**A.** > 50 µg/mL

**Q.** What about the neutralization IC80 [6] of the same substance?
**A.** > 50 µg/mL

**Q.** What about the neutralization MPI [6] of the same substance?
**A.** 14

**Q.** And the neutralization IC50 [7]?
**A.** 0.579 µg/mL

**Q.** What about the neutralization IC80 [7] of the same substance?
**A.** 2.09 µg/mL

**Q.** And the neutralization MPI [7]?
**A.** 99

**Q.** What about the neutralization IC50 [8] of the same substance?
**A.** 0.54 µg/mL

**Q.** And the neutralization IC80 [8]?
**A.** 3.15 µg/mL

**Q.** What about the neutralization MPI [8] of the same substance?
**A.** 99

**Q.** And the neutralization IC50 [9]?
**A.** > 50 µg/mL

**Q.** And the neutralization IC80 [9]?
**A.** > 50 µg/mL

**Q.** And the neutralization MPI [9]?
**A.** 7

**Q.** And the neutralization IC50 [10]?
**A.** > 50 µg/mL

**Q.** What about the neutralization IC80 [10] of the same substance?
**A.** > 50 µg/mL

**Q.** What about the neutralization MPI [10] of the same substance?
**A.** 32

**Q.** And the neutralization IC50 [11]?
**A.** 3.66 µg/mL

**Q.** What about the neutralization IC80 [11] of the same substance?
**A.** 25.6 µg/mL

**Q.** And the neutralization MPI [11]?
**A.** 87

**Q.** What about the neutralization IC50 [12] of the same substance?
**A.** 0.357 µg/mL

**Q.** What about the neutralization IC80 [12] of the same substance?
**A.** 1.34 µg/mL

**Q.** What about the neutralization MPI [12] of the same substance?
**A.** 100

**Q.** How did the IC50 (Titer in TZM.bl cells) [1] turn out when PGDM1400 (antibody) was run?
**A.** < 0.001 µg/mL

**Q.** And the IC80 (Titer in TZM.bl cells) [1]?
**A.** 0.01 µg/mL

**Q.** And the neutralization IC50 [13]?
**A.** 1.15 µg/mL

**Q.** And the neutralization IC80 [13]?
**A.** 9.97 µg/mL

**Q.** What about the IC50 (Titer in TZM.bl cells) [2] of the same substance?
**A.** > 50 µg/mL

**Q.** And the IC80 (Titer in TZM.bl cells) [2]?
**A.** > 50 µg/mL

**Q.** What about the neutralization IC50 [3] of the same substance?
**A.** 0.033 µg/mL

**Q.** What about the neutralization IC80 [3] of the same substance?
**A.** 0.175 µg/mL

**Q.** What about the IC50 (Titer in TZM.bl cells) [4] of the same substance?
**A.** < 0.001 µg/mL

**Q.** What about the IC80 (Titer in TZM.bl cells) [4] of the same substance?
**A.** < 0.001 µg/mL

**Q.** What about the IC50 (Titer in TZM.bl cells) [5] of the same substance?
**A.** 0.574 µg/mL

**Q.** And the IC80 (Titer in TZM.bl cells) [5]?
**A.** 4.94 µg/mL

**Q.** What about the neutralization IC50 [14] of the same substance?
**A.** 0.039 µg/mL

**Q.** What about the neutralization IC80 [14] of the same substance?
**A.** 0.786 µg/mL

**Q.** What about the neutralization IC50 [15] of the same substance?
**A.** 0.484 µg/mL

**Q.** What about the neutralization IC80 [15] of the same substance?
**A.** 6.49 µg/mL

**Q.** And the neutralization IC50 [16]?
**A.** 0.077 µg/mL

**Q.** What about the neutralization IC80 [16] of the same substance?
**A.** 0.246 µg/mL

**Q.** And the IC50 (Titer in TZM.bl cells) [6]?
**A.** 0.055 µg/mL

**Q.** What about the IC80 (Titer in TZM.bl cells) [6] of the same substance?
**A.** 1.45 µg/mL

**Q.** And the neutralization IC50 [17]?
**A.** > 50 µg/mL

**Q.** And the neutralization IC80 [17]?
**A.** > 50 µg/mL

**Q.** And the neutralization IC50 [18]?
**A.** 0.166 µg/mL

**Q.** What about the neutralization IC80 [18] of the same substance?
**A.** > 50 µg/mL

**Q.** What about the neutralization IC50 [19] of the same substance?
**A.** 0.001 µg/mL

**Q.** And the neutralization IC80 [19]?
**A.** 0.007 µg/mL

**Q.** What about the neutralization IC50 [20] of the same substance?
**A.** 0.057 µg/mL

**Q.** What about the neutralization IC80 [20] of the same substance?
**A.** 0.382 µg/mL

**Q.** And the neutralization IC50 [21]?
**A.** 0.007 µg/mL

**Q.** And the neutralization IC80 [21]?
**A.** 0.021 µg/mL

**Q.** And the neutralization IC50 [22]?
**A.** > 50 µg/mL

**Q.** What about the neutralization IC80 [22] of the same substance?
**A.** > 50 µg/mL

**Q.** And the neutralization IC50 [23]?
**A.** > 50 µg/mL

**Q.** And the neutralization IC80 [23]?
**A.** > 50 µg/mL

**Q.** What about the neutralization IC50 [24] of the same substance?
**A.** 0.283 µg/mL

**Q.** What about the neutralization IC80 [24] of the same substance?
**A.** 1.38 µg/mL

**Q.** What about the neutralization IC50 [25] of the same substance?
**A.** 5.18 µg/mL

**Q.** And the neutralization IC80 [25]?
**A.** 22 µg/mL

**Q.** And the neutralization IC50 [26]?
**A.** 0.019 µg/mL

**Q.** What about the neutralization IC80 [26] of the same substance?
**A.** 0.051 µg/mL

**Q.** What about the neutralization IC50 [27] of the same substance?
**A.** < 0.001 µg/mL

**Q.** And the neutralization IC80 [27]?
**A.** 0.139 µg/mL

**Q.** What about the neutralization IC50 [28] of the same substance?
**A.** 0.003 µg/mL

**Q.** And the neutralization IC80 [28]?
**A.** 0.012 µg/mL

**Q.** And the neutralization IC50 [29]?
**A.** < 0.001 µg/mL

**Q.** And the neutralization IC80 [29]?
**A.** 0.008 µg/mL

**Q.** And the neutralization IC50 [30]?
**A.** > 50 µg/mL

**Q.** And the neutralization IC80 [30]?
**A.** > 50 µg/mL

**Q.** And the neutralization IC50 [31]?
**A.** > 50 µg/mL

**Q.** What about the neutralization IC80 [31] of the same substance?
**A.** > 50 µg/mL

**Q.** And the IC50 (Titer in TZM.bl cells) [8]?
**A.** 0.219 µg/mL

**Q.** What about the IC80 (Titer in TZM.bl cells) [8] of the same substance?
**A.** 0.781 µg/mL

**Q.** What about the neutralization IC50 [32] of the same substance?
**A.** < 0.001 µg/mL

**Q.** What about the neutralization IC80 [32] of the same substance?
**A.** 0.001 µg/mL

**Q.** What about the neutralization IC50 [33] of the same substance?
**A.** 0.105 µg/mL

**Q.** What about the neutralization IC80 [33] of the same substance?
**A.** 0.869 µg/mL

**Q.** And the neutralization IC50 [9]?
**A.** < 0.001 µg/mL

**Q.** What about the neutralization IC80 [9] of the same substance?
**A.** < 0.001 µg/mL

**Q.** And the neutralization IC50 [34]?
**A.** 0.072 µg/mL

**Q.** What about the neutralization IC80 [34] of the same substance?
**A.** 0.348 µg/mL

**Q.** And the IC50 (Titer in TZM.bl cells) [10]?
**A.** 0.013 µg/mL

**Q.** And the IC80 (Titer in TZM.bl cells) [10]?
**A.** 0.289 µg/mL

**Q.** And the neutralization IC50 [35]?
**A.** 0.103 µg/mL

**Q.** And the neutralization IC80 [35]?
**A.** 1.37 µg/mL

**Q.** And the IC50 (Titer in TZM.bl cells) [11]?
**A.** 0.443 µg/mL

**Q.** What about the IC80 (Titer in TZM.bl cells) [11] of the same substance?
**A.** 1.29 µg/mL

**Q.** What about the neutralization IC50 [36] of the same substance?
**A.** 0.002 µg/mL

**Q.** And the neutralization IC80 [36]?
**A.** 0.011 µg/mL

**Q.** What about the neutralization IC50 [37] of the same substance?
**A.** 0.034 µg/mL

**Q.** And the neutralization IC80 [37]?
**A.** 0.514 µg/mL

**Q.** What about the neutralization IC50 [12] of the same substance?
**A.** < 0.001 µg/mL

**Q.** And the neutralization IC80 [12]?
**A.** 0.007 µg/mL
